2 molecules from patent US5389611A, “Lactoferrin hydrolyzate for use as an antibacterial agent and as a tyrosinase inhibition agent” (priority 1990, dated 1995) can be followed below.

Assay [1] relates to Escherichia coli. Briefly: Antibacterial activity: proliferation inhibition of E. coli in liquid culture medium (Tests 1, 3, 6). The assay is classed as cell-based. As to the method:
From the stock culture of Escherichia coli, a loop of bacterial cells was taken out with a platinum loop and smeared onto a standard plate agar medium (by Nissui Seiyaku), followed by incubation at 35° C. for 16 hours under aerobic condition.
Basic culture medium (liquid culture medium) was prepared by dissolving bactocasitone (by Difco) into purified water in 1% concentration, adjusting the pH of the resultant solution to 7.0 with 1M sodium hydroxide, then sterilizing at 115° C. for 15 minutes.
The solutions of LF hydrolyzates previously prepared in item 1-1) were respectively filtered with membrane filters (by Advantech) to remove microorganisms which might be included therein. Different quantities of each of filtered solutions of LF hydrolyzates were respectively added to a portion of the basic culture medium to give 6 lots of test culture media containing LF hydrolyzate in different concentrations for each LF hydrolyzate having different decomposition rates as shown in Table 1. Control culture media containing unhydrolyzed LF in different concentrations were also prepared in the same manner as in the test culture media.
To each of the test and control culture media, the pre-culture was inoculated in 1% concentration, followed by incubation at 35° C. for 16 hours. The proliferation inhibition rate was determined by measuring the optical density of the culture broth in the same manner as previously described and calculating in accordance with the following formula:
proliferation inhibition rate (%)=100-(A/B×100)
(wherein A denotes the difference of optical densities of the test culture media before and after 16 hours incubation, B denotes the difference of optical densities of the control culture media before and after 16 hours incubation respectively) and
Antibacterial activity against E. coli of LF hydrolyzate having a 12% decomposition rate prepared in the same manner as in Example 2 (hydrolysis by citric acid) and that of unhydrolyzed LF were determined in the same manner as in Test 1.
Aqueous solutions of 10 kinds of LF hydrolyzate (prepared using different enzymes) and an aqueous solution of unhydrolyzed LF prepared in the same manner as in test 2 were filtered with membrane filters (by Advantec) to remove bacterial cells which might be contaminated therein. Each of the solutions was added to basic culture media (the same with that in Test 1) in different concentrations (50, 100, 250, 500, and 1000 ppm) to prepare test cultures and control cultures.
Antibacterial activity was tested for these cultures in the same manner as in test 1.

The subject of assay [2] is Escherichia coli. As to the kind of experiment: Antibacterial activity against E. coli in the presence of iron (Test 8). Type of assay: cell-based. The conditions noted are these: 0.01 mM of ferrous sulfate.
A further assay deals with viable bacterial count. Briefly: Viable bacterial count of treated sliced vegetables (Test 4). The conditions noted are these: dipped in 1% aqueous solution 30 seconds, preserved at 5° C. As to the method:
A quantity of sliced vegetables sold in the market was divided into three parts. […] Each of the treated samples was drained then preserved at 5° C. for observation. Viable bacterial count of the samples was periodically determined by the conventional method.

The nature of assay [3]: Preservation of cow's milk, change in appearance (Test 7). The settings on record: cow's milk at 25° C. As to the method:
The antibacterial activity of hydrolyzates of iron saturated LF was tested in the same manner as in test 5, except that hydrolyzates of iron saturated LF prepared in the same manner as in Example 5 and cow's milk sold in the market were used.
Each of three kinds of samples, to one of which is added hydrolyzate of Fe-LF, to another one of which is added unhydrolyzed LF and the third of which is added nothing, were respectively distributed into 3 test tubes (in total 9) and preserved at 25° C. for observation of any change in appearance.

Where [4] appears, read: preservation day 10, 3 test tubes.
[5] abbreviates: preservation day 14, 3 test tubes.

B1: lactoferrin (protein, UniProt P24627 20-708, looked up)
Lactotransferrin: APRKNVRWCTISQPEWFKCRRWQWRMKKLGAPSITCVRRAFALECIRAIAEKKADAVTLDGGMVFEAGRDPYKLRPVAAEIYGTKESPQTHYYAVAVVKKGSNFQLDQLQGRKSCHTGLGRSAGWIIPMGILRPYLSWTESLEPLQGAVAKFFSASCVPCIDRQAYPNLCQLCKGEGENQCACSSREPYFGYSGAFKCLQDGAGDVAFVKETTVFENLPEKADRDQYELLCLNNSRAPVDAFKECHLAQVPSHAVVARSVDGKEDLIWKLLSKAQEKFGKNKSRSFQLFGSPPGQRDLLFKDSALGFLRIPSKVDSALYLGSRYLTTLKNLRETAEEVKARYTRVVWCAVGPEEQKKCQQWSQQSGQNVTCATASTTDDCIVLVLKGEADALNLDGGYIYTAGKCGLVPVLAENRKSSKHSSLDCVLRPTEGYLAVAVVKKANEGLTWNSLKDKKSCHTAVDRTAGWNIPMGLIVNQTGSCAFDEFFSQSCAPGADPKSRLCALCAGDDQGLDKCVPNSKEKYYGYTGAFRCLAEDVGDVAFVKNDTVWENTNGESTADWAKNLNREDFRLLCLDGTRKPVTEAQSCHLAVAPNHAVVSRSDRAAHVKQVLLHQQALFGKNGKNCPDKFCLFKSETKNLLFNDNTECLAKLGGRPTYEEYLGTEYVTAIANLKKCSTSPLLEACAFLTR
notes: Native LF sold in the market (by Oleofina, Belgium), not hydrolyzed; control of Tests 1, 3-6, 8
As for B1, the “quantity added at which antibacterial activity was shown” value in the assay on Escherichia coli [1] (Table 1) was “more than 250 ppm”. Further, the proliferation inhibition rate entry in the assay with Escherichia coli [1] (Table 1, concentration 1000 ppm) is reported as “complete inhibition could not be achieved”; in the assay with Escherichia coli [1] (Table 3, quantity added 25 ppm) it was 0%; with Escherichia coli [1] (Table 3, quantity added 50 ppm), 0%; in the assay on Escherichia coli [1] (Table 3, quantity added 100 ppm), 5%; in the assay on Escherichia coli [1] (Table 3, quantity added 250 ppm), 16%; with Escherichia coli [1] (Table 3, quantity added 500 ppm), 74%. The proliferation inhibition rate in the assay with Escherichia coli [1] (Table 3, quantity added 1000 ppm) is recorded as 85%; in the assay with Escherichia coli [1] (Table 5, quantity 250 ppm) it was “weak antibacterial activity”; with Escherichia coli [1] (Table 5, quantity 1000 ppm), “complete inhibition against proliferation of E. coli could not be achieved”. For the same molecule, in the assay on Escherichia coli [2], the “antibacterial activity in the presence of ferrous sulfate, in words” value is “deactivated”. Moreover, the viable bacterial counts is on record as 5.1 × 10^3 per 1 g of sliced vegetables with viable bacterial count (0 hours), 2.0 × 10^4 per 1 g of sliced vegetables in the assay on viable bacterial count (12 hours), 1.8 × 10^5 per 1 g of sliced vegetables in the assay with viable bacterial count (24 hours) and 2.2 × 10^5 per 1 g of sliced vegetables in the assay on viable bacterial count (36 hours). In addition, the figures for the “change in appearance of milk” value in assay [3] (setting [4]) and in assay [3] (setting [5]) were “did not show any change in appearance” and “all of the samples showed coagulation”, respectively.

B2: unhydrolyzed Fe-LF: Comparison sample of Test 7; table says unhydrolyzed Fe-LF ?, text says unhydrolyzed LF (protein, UniProt P24627 20-708, looked up)
Lactotransferrin: APRKNVRWCTISQPEWFKCRRWQWRMKKLGAPSITCVRRAFALECIRAIAEKKADAVTLDGGMVFEAGRDPYKLRPVAAEIYGTKESPQTHYYAVAVVKKGSNFQLDQLQGRKSCHTGLGRSAGWIIPMGILRPYLSWTESLEPLQGAVAKFFSASCVPCIDRQAYPNLCQLCKGEGENQCACSSREPYFGYSGAFKCLQDGAGDVAFVKETTVFENLPEKADRDQYELLCLNNSRAPVDAFKECHLAQVPSHAVVARSVDGKEDLIWKLLSKAQEKFGKNKSRSFQLFGSPPGQRDLLFKDSALGFLRIPSKVDSALYLGSRYLTTLKNLRETAEEVKARYTRVVWCAVGPEEQKKCQQWSQQSGQNVTCATASTTDDCIVLVLKGEADALNLDGGYIYTAGKCGLVPVLAENRKSSKHSSLDCVLRPTEGYLAVAVVKKANEGLTWNSLKDKKSCHTAVDRTAGWNIPMGLIVNQTGSCAFDEFFSQSCAPGADPKSRLCALCAGDDQGLDKCVPNSKEKYYGYTGAFRCLAEDVGDVAFVKNDTVWENTNGESTADWAKNLNREDFRLLCLDGTRKPVTEAQSCHLAVAPNHAVVSRSDRAAHVKQVLLHQQALFGKNGKNCPDKFCLFKSETKNLLFNDNTECLAKLGGRPTYEEYLGTEYVTAIANLKKCSTSPLLEACAFLTR
modifications: iron-saturated
In the case of B2, the “change in appearance of milk” value in assay [3] (preservation day 0, 3 test tubes) was “no change”; in assay [3] (preservation day 3, 3 test tubes), “no change”; in assay [3] (preservation day 7, 3 test tubes) it was “no change”; in assay [3] (setting [4]), “no change”; in assay [3] (setting [5]), “coagulated”.
